In general, EC50 (read off the curve) refers to the concentration that produces a half-maximal response.

Assay [1] has as its target T1, human macrophage migration-inhibitory factor (MIF) (human, UniProt P14174 2-115, limits assumed, Alexa-Fluor 488 or Monolith NT-647 (MST-Red) label where so named).
T1 construct: Biologically active recombinant MIF prepared as reported previously; also called Alexa-MIF; Alexa-488-MIF
Put plainly: fluorescence spectroscopic binding assay.

Assay [2] addresses T1, human macrophage migration-inhibitory …. Put plainly: cell-based or functional assay.
Assay [3] has the same target. Put plainly: fluorescence spectroscopic titration, apparent Kd; Fluos-ngm titrated with MIF. The protocol:
(§1) Peptides were dissolved and analyzed by MALDI-TOF-MS; ^{[a]}Peptides were synthesized with free amino-N-terminal and amidated C-terminal; ^{[b]}monoisotopic molar mass with an additional hydrogen [M + H]⁺; ^{[c]} App. Kds, are means (±SD) from three independent titration experiments which were performed in aqueous […], pH 7.4, containing 1% HFIP.
(§2) Fluorescence spectroscopy. Fluorescence spectroscopic titrations were performed as described^{28, 32}. Fluorescence spectra were recorded using a JASCO FP-6500 fluorescence spectrophotometer. […] Apparent KD values (app. KD) were calculated assuming a 1/1 binding model³².

For assay [4] the target is unchanged. Put plainly: fluorescence spectroscopic titration of Fluos-ngm-LD3 with increasing MIF [panel B]. On the procedure: as §2
The target is the same in assay [5]. Put plainly: fluorescence spectroscopic titration, apparent Kd; Alexa-488-MIF titrated with ngm. On the procedure:
as §1, §2

Assay [6] has the same target. Put plainly: fluorescence spectroscopic titration.
Assay [7] shares this target. Put plainly: fluorescence spectroscopic titration; row labelled msR4M-L5 but with the K-K-K linker. On the procedure:
as §1, §2

Where no end group is shown, it is not given here.

T1 sequence (P14174 2-115 limits assumed): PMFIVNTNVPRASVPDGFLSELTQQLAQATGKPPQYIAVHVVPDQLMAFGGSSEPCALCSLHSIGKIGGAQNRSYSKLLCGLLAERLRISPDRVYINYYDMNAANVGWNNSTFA

In assay [1], NWYFGNFLCK-NH2 [ECL1 fragment 101-110] came in with a Kd of 51 nM. Moreover, in assay [2], the “inhibitory capacity in the Dil-LDL foam cell assay” value (from here on “inhibitory capacity”) was ~80 % of full-length msR4M-L1.

In assay [1], ANWYFGNFLCK-NH2 [ECL1 fragment 100-110] came in with a Kd of 215 nM. Besides, the “inhibitory capacity” value in assay [2] was ~80 % of full-length msR4M-L1.

WYFGNFLCKDDDDRFYPNDLW-NH2 (designed binder, not fully specified; printed as WYFGNFLCK-DDD-DRFYPNDLW, also called ngm-LD3; msR4M-D3) [msR4M-LD3 ([ECL1(102-110)]-D-D-D-[ECL2(187-195)])]: the Kd in assay [3] amounted to 36 nM; in assay [5], 246 nM; in assay [6], 33 nM. Moreover, the “EC50 (read off the curve)” value in assay [4] was roughly 30 nM. Also, in assay [2], the “IC50 of inhibition of MIF-mediated monocyte migration (3D, single cell tracking)” value came to 18.4 nM. For the same molecule, the “IC50 of inhibition of MIF-triggered Dil-oxLDL uptake (foam cell assay)” value in assay [2] was found to be 1.4 nM.

For WYFGNFLCKRRRDRFYPNDLW-NH2 (designed binder, not fully specified; printed as WYFGNFLCK-RRR-DRFYPNDLW, also called ngm-LR3; msR4M-R3) [msR4M-LR3 ([ECL1(102-110)]-R-R-R-[ECL2(187-195)])], the Kd in assay [3] turned out to be 16.8 nM; in assay [5], 110 nM; in assay [6] it was 22 nM.

Consider ICDRFYPNDLW-NH2 [ECL2 fragment 185-195], for which the Kd in assay [1] was found to be 324 nM. Besides, the “inhibitory capacity” value in assay [2] is ~80 % of full-length msR4M-L1.

As to DRFYPNDLW-NH2 [ECL2(187-195)], in assay [1], the Kd amounted to 286 nM. The “inhibitory capacity” value in assay [2] was ~80 % of full-length msR4M-L1.

In assay [1], WYFGNFLCK-NH2 [ECL1(102-110)] had a Kd of 80 nM. In addition, the “inhibitory capacity” value in assay [2] was ~80 % of full-length msR4M-L1.

Regarding WYFGNFLCKKKKDRFYPNDLW-NH2 (designed binder, not fully specified; printed as WYFGNFLCK-KKK-DRFYPNDLW, also called ngm-LK3; msR4M-K3) [msR4M-LK3 ([ECL1(102-110)]-K-K-K-[ECL2(187-195)])], the Kd in assay [3] is 36.4 nM; in assay [7], 30 to 40 nM; in assay [5] it was 44.8 nM.
